Experimental data reported in patent US20220025069A1.
Like-named read-outs stand apart in the source and are kept apart here.

Columns and labels:
[1] = molecular target: human 4-1BB (CD137), cell-surface-expressed on Jurkat-hu4-1BB-NFkB-luc2 reporter cell line (human) (UniProt Q07011); test: cell-based or functional assay; parameters: AUC of activation curve, NFκB-luciferase in Jurkat-hu4-1BB-NFκB-luc2, crosslinking by WM-266-4 cells: unit not given beside the values
[2] = molecular target: human HER2, cell-surface-expressed on KPL4 and NCI-N87 cells (human) (UniProt P04626); test: flow cytometry, KPL4 cells, gMFI curve
[3] = molecular target: human 4-1BB (CD137), cell-surface-expressed on Jurkat-hu4-1BB-NFkB-luc2 reporter cell line (human) (UniProt Q07011); test: flow cytometry, Jurkat-hu4-1BB-NFkB-luc2 cells, gMFI curve
[4] = molecular target: human HER2, cell-surface-expressed on KPL4 and NCI-N87 cells (human) (UniProt P04626); test: flow cytometry, NCI-N87 cells, gMFI curve
[5] = molecular target: human Fibroblast Activation Protein (FAP), cell-surface-expressed on NIH/3T3-huFAP clone 19 cells (human) (UniProt Q12884); test: flow cytometry, NIH/3T3-huFAP clone 19 cells, gMFI curve
[6] = molecular target: human 4-1BB (CD137), cell-surface-expressed on Jurkat-hu4-1BB-NFkB-luc2 reporter cell line (human) (UniProt Q07011); test: flow cytometry, Jurkat-hu4-1BB-NFkB-luc2 cells, gMFI curve; remark: listed apart in the source
[7] = molecular target: human 4-1BB (CD137), cell-surface-expressed on Jurkat-hu4-1BB-NFkB-luc2 reporter cell line (human) (UniProt Q07011); test: cell-based or functional assay; parameters: unit not given beside the values

- AUC of activation curve, NFκB-luciferase in Jurkat-hu4-1BB-NFκB-luc2, crosslinking by NIH/3T3-huFAP clone 19 cells [1]: 195
- AUC of activation curve, NFκB-luciferase in Jurkat-hu4-1BB-NFκB-luc2, crosslinking by WM-266-4 cells [1]: 191
- Area under the curve (AUC) of binding curve [2]: 177
- Area under the curve (AUC) of binding curve [3]: 87
- Area under the curve (AUC) of binding curve [4]: 1130
- Area under the curve (AUC) of binding curve [5]: 362
- Area under the curve (AUC) of binding curve [6]: 101
- AUC of activation curve, NFκB-luciferase in Jurkat-hu4-1BB-NFκB-luc2, crosslinking by KPL4 cells [7]: 253
- AUC of activation curve, NFκB-luciferase in Jurkat-hu4-1BB-NFκB-luc2, crosslinking by NCI-N87 cells [7]: 127
- AUC of activation curve, NFκB-luciferase in Jurkat-hu4-1BB-NFκB-luc2, crosslinking by SK-Br3 cells [7]: 129
Substance: DP47 huIgG1 PG LALA (antibody)
